B1: G protein pathway suppressor 2 (Homo sapiens), Q13227 (parent)
chain: MPALLERPKLSNAMARALHRHIMMERERKRQEEEEVDKMMEQKMKEEQERRKKKEMEERMSLEETKEQILKLEEKLLALQEEKHQLFLQLKKVLHEEEKRRRKEQSDLTTLTSAAYQQSLTVHTGTHLLSMQGSPGGHNRPGTLMAADRAKQMFGPQVLTTRHYVGSAAAFAGTPEHGQFQGSPGGAYGTAQPPPHYGPTQPAYSPSQQLRAPSAFPAVQYLSQPQPQPYAVHGHFQPTQTGFLQPGGALSLQKQMEHANQQTGFSDSSSLRPMHPQALHPAPGLLASPQLPVQMQPAGKSGFAATSQPGPRLPFIQHSQNPRFYHK
partner: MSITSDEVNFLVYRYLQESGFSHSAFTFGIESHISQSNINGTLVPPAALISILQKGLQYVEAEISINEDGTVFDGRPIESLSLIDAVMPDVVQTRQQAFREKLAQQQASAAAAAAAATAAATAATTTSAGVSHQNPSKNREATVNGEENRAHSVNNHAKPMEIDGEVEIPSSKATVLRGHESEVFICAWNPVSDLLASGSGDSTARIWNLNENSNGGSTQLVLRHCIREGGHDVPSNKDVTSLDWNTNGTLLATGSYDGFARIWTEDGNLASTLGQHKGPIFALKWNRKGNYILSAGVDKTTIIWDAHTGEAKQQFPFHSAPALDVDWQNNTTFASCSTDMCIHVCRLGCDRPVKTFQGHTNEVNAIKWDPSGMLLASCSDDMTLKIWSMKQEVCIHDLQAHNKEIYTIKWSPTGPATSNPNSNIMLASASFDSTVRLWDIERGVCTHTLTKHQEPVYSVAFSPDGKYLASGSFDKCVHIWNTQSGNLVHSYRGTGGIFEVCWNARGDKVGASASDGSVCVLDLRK
B2: F-box-like/WD repeat-containing protein TBL1X (Homo sapiens), O60907-2 (parent)
chain: B1 partner

Variants of: B1
Details: with TBL1X

Row | effect of a mutation on the interaction | Variant
1 | disrupting interaction | H19A;R20E;I22A

Variants of: B2
Details: with ncor2_human NCOR2, Q9Y618
Sequence of ncor2_human NCOR2, Q9Y618 (Q9Y618 whole entry): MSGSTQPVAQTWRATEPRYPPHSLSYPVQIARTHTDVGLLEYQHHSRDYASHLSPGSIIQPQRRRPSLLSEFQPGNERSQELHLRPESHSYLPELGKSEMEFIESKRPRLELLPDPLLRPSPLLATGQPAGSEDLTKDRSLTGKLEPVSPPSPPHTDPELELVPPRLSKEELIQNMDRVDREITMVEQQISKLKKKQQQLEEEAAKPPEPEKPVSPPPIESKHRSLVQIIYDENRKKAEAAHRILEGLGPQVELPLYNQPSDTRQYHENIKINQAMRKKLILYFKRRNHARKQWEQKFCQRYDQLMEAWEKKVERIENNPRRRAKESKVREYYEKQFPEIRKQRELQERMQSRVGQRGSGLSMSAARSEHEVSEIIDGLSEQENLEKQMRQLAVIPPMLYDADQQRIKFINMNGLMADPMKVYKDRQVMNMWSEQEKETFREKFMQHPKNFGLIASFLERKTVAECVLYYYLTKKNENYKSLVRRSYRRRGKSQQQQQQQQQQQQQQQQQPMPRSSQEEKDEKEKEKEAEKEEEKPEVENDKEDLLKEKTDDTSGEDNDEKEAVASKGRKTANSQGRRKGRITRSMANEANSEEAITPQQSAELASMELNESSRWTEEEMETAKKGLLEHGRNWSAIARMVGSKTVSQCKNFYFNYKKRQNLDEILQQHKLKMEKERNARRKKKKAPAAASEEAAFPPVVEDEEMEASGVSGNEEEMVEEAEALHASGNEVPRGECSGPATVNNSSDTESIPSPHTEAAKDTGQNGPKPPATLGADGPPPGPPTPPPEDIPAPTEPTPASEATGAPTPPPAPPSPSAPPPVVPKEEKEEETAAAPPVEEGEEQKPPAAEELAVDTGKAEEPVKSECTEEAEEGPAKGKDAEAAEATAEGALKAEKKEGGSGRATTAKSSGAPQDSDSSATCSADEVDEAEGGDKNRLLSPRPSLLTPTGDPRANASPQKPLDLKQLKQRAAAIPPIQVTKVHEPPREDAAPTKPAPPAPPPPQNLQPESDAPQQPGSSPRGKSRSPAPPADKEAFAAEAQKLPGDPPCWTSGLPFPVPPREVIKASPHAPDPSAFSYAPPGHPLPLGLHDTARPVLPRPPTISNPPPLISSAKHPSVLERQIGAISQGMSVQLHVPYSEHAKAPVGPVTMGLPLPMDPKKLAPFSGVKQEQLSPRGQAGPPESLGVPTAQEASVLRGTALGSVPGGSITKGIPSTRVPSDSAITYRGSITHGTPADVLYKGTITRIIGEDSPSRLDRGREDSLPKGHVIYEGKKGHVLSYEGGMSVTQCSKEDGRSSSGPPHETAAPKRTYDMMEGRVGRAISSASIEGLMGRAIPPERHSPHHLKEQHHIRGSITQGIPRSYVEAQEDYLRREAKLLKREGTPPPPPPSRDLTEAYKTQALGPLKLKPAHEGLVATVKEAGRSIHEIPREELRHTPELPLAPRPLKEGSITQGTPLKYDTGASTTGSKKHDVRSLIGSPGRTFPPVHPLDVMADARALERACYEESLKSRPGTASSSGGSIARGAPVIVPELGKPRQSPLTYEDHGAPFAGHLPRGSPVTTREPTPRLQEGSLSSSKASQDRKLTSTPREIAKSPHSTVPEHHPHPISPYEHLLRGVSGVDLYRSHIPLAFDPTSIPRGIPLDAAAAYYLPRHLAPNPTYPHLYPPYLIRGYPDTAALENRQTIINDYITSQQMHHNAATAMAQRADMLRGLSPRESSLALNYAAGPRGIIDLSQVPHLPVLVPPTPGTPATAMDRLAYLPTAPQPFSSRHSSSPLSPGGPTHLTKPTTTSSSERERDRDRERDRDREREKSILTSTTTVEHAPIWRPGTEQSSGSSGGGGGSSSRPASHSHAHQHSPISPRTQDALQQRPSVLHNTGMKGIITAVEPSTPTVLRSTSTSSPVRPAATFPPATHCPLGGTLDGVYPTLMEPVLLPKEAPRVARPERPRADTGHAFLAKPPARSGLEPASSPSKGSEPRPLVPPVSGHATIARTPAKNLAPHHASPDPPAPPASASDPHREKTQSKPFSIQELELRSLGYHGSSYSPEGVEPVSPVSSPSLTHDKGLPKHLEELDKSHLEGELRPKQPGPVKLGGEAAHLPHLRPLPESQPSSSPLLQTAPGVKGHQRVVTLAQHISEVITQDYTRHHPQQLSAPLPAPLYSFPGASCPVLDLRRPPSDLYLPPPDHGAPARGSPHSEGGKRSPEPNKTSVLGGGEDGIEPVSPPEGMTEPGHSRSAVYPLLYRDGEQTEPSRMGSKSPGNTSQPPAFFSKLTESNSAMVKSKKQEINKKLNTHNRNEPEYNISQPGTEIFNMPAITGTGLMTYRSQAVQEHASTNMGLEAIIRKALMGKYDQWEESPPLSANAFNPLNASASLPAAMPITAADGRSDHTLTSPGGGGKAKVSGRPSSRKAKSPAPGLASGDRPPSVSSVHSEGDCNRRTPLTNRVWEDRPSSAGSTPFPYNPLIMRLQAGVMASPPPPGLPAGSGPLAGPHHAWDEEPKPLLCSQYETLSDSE

Row | effect of a mutation on the interaction | Variant
2 | disrupting interaction | V60N
3 | decreasing interaction strength | L57Q
4 | decreasing interaction strength | L57A

Further lines, the variant ahead of its results:

Row | Variant | effect of a mutation on the interaction
5 | I39A | decreasing interaction
6 | P45G | decreasing interaction

Variants of: B2
Details: with gps2_human GPS2, Q13227

Row | effect of a mutation on the interaction | Variant
7 | disrupting interaction | V60N
8 | decreasing interaction strength | L57Q
9 | decreasing interaction strength | L57A
